T1: mature GDF8 (human, UniProt O14793 267-375)
T1 construct: also called myostatin; mstn
T1 sequence: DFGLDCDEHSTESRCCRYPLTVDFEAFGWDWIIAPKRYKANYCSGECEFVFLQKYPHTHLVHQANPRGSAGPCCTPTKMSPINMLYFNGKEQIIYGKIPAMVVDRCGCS

T2: peptide 1 (human)
T2 construct: also called peptide 1 of mature GDF8
T2 peptide: DFGLDCDEHSTESRCCRY

T3: peptide 5 (human)
T3 construct: also called peptide 5 of mature GDF8
T3 peptide: CCTPTKMSPINMLYFNGK

T4: mature GDF8 from mouse serum (mouse, UniProt O08689 268-376)
T4 construct: mature; also called mouse serum mature GDF8
T4 sequence (looked up): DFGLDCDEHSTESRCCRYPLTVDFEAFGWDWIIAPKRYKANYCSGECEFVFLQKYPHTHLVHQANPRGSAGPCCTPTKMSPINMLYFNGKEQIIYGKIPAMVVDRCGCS


What was measured:
[1] = molecular target: T1, mature GDF8; experiment: immunoprecipitation from 293T conditioned medium, western blot
Procedure: An immunoprecipitation study was conducted to test the binding of myostatin antibodies to mature GDF8 and mature GDF8/propeptide complex. 293T cells were transfected with GDF-8 expression construct. Conditioned media was harvested 7 days after transfection, which contained mature GDF8 and latent complex. 100 μl conditioned media was incubated with 10 μg myostatin antibodies for 16 hours at 4° C. Protein A Dynabeads (Dynal, Norway) were added and incubated for 90 minutes at 4° C. The immunoprecipitate was collected using MPC-E magnetic concentrator (Dynal, Norway), and washed four times with PBS. […] Western blotting was performed using Odyssey infrared imaging system (Li-Cor). Mature GDF8 and unprocessed GDF8 were detected using goat anti-myostatin antibody (R&D systems, Cat# AF788). Rabbit anti-propeptide polyclonal antibody (made in-house) was used to detect both propeptide and unprocessed GDF8. […] No other antibodies immunoprecipitated mature GDF8, propeptide, or unprocessed GDF8. Lane 4 is the 1/10 medium loading control, and lane 7 is immunoprecipitation control with medium only.

[2] = molecular target: T2, peptide 1; experiment: peptide ELISA
Procedure: (§1) Eleven peptides were generated from mature GDF8 to test and localize antibody binding (See FIG. 6). Peptide ELISA was done on glutaraldehyde coated ELISA plates and on uncoated ELISA plates (NUNC-Immuno™ plate MaxiSorp™ surface, Nalge Nunc International, Cat. No. 439454). Glutaraldehyde coated plates were prepared by mixing 250 μl glutaraldehyde (50% w/v) with 50 ml deionized water and adding 200 μl of the solution into each well. Plates were incubated for at least 1 hour at room temperature. The glutaraldehyde was shaken out of the plate and smashed upside down on paper towels to remove all the liquid prior to use.
(§2) ELISA plates were coated with peptide at 1.0 μg/well/50 μl (in Sodium bicarbonate buffer, pH 9.6) for at least 4 hours, and then blocked with 200 μl blocker (1%BSA, 1%Ethanolamine pH 7.4) for minimum 4 hours. Plates were washed with PBST three times with 200 μl/well. 50 μl antibody (1 μg/ml in PBST, Phosphate-buffered saline (PBS) with 0.05% Tween-20) sample was added to the wells for 1 hour. Plates were then washed with PBST three times. 50 μl anti-human IgG-horseradish peroxidase(HRP) (Pierce, Cat# 31420) diluted in PBST is added for another hour. The wells were washed again with TBST three times, and then with deionized water twice. 50 μl ABTS (MOSS) was added for 5-20 minutes, and the signal was detected at 405 nm in a colormetric plate reader.

[3] = molecular target: T3, peptide 5; experiment: peptide ELISA
Procedure: as §1, §2

[4] = molecular target: T4, mature GDF8 from mouse serum; experiment: immunoprecipitation from mouse serum, western blot
Procedure: An immunoprecipitation study was conducted to test the binding of myostatin antibodies to mature GDF8 from mouse serum. […] mouse serum (Rockland, Cat ## D208-00) was incubated with 20 μg myostatin antibodies for 16 hours at 4° C. Protein A Dynalbeads were added and incubated for 90 minutes at 4° C. The immunoprecipitate was collected using MPC-E magnetic concentrator (Dynal, Norway), and washed four times with PBS. […] Western blotting was performed using Odyssey Infrared imaging system (Li-Cor). Mature GDF8 was detected using biotinylated goat anti-myostatin antibody (R&D systems, Cat# BAF788). […] It is known that mature GDF8 in the serum binds to many inhibitory proteins such as propeptide, FLRG, and GASAP1 (Hill et al. (2002) The myostatin propeptide and the follistatin-related gene are inhibitory binding proteins of myostatin in normal serum. J. Biol. Chem. 277: 40735-40741. Hill et al. (2003) Regulation of myostatin in vivo by growth and differentiation factor-associated serum protein-1: a novel protein with protease inhibitor and follistatin domains. Mol. Endocrin. 17(6): 1144-1154). […] Such non-competitive neutralizing antibodies would be advantageous in vivo.

| binding result [1] | binding result [2] | binding result [3] | binding result [4] | Binder |
| --- | --- | --- | --- | --- |
| binds | binds | binds | binds | 2-112-1 (antibody, V domains shown, Full-length deduced chains) VH: EVQLLESGGGLIQPGGSLRLSCAASGFTFSSFAMSWVRQAPGKGLEWVSTISGSGGYTFYADSVKGRFTISRDNSKNTLYLQMNSLRAEDTAVYYCAKDGRYNWNYGAFDIWGQGTMVTVSS VL: EIVMTQSPATLSVSPGERATLSCRASQSVSSNLAWYQQKPGQAPRLLIYGASTRATGFPARFSGSGSGTEFTLTISSLQSEDFAIYYCQQYNNWPLTFGGGTKVEIKR |
| binds | binds | binds | binds | 2-43-1 (antibody, V domains shown, Full-length deduced chains) VH: EVQLLESGGGLVQPGGSLRLSCAASGFTFSSYAMSWVRQAPGKGLEWVSAISGSGGSTFYADSVTGRFTISRDNSKNTLFLQLNSLRAEDTAVYHCAKDGRFNWNYGASDIWGQGTMVTVSS VL: EIVMTQSPATLSVSPGERATLSCRTSQSVSSNLAWYQQKPGQAPRLLIYGASTRATGIPARFSGSGSGTEFTLTISSLQSEDFAVYYCQQYNNWPLTFGGGTKVEIKR |
| binds | binds | binds | binds | 2-177-1 (antibody, V domains shown, Full-length deduced chains) VH: EVQLLESGGGLIQPGGSLRLSCAASGFTFSSFAMSWVRQAPGKGLEWVSTISGSGGSTYYADFVKGRFTISRDNSKNTLYLQMNSLRAEDTAVYYCAKDGRYNWNYGAFDIWGQGTMVTVSS VL: EIVMTQSPATLSVSPGERATLSCRASQSVRSNLAWFQQKPGQAPRLLIYGASTRATGIPARFSGSGSGTEFTLTISSLQSEDFAVYYCQQYNNWPLTFGGGTKVEIKR |

— patent US20060263354A1 (Amgen, published 2006)
